First the molecules themselves.
B1: His-UbcH6 (enzyme, human, UniProt P51965 1-193, looked up)
chain: MSDDDSRASTSSSSSSSSNQQTEKETNTPKKKESKVSMSKNSKLLSTSAKRIQKELADITLDPPPNCSAGPKGDNIYEWRSTILGPPGSVYEGGVFFLDITFTPEYPFKPPKVTFRTRIYHCNINSQGVICLDILKDNWSPALTISKVLLSICSLLTDCNPADPLVGSIATQYMTNRAEHDRMARQWTKRYAT
notes: UbcH6 (E2), human; cDNA amplified from a human thymus cDNA library; source: E. coli BL21(DE3), purified (Ni Sepharose 6 Fast Flow)
B2: GST-UbcH5a (enzyme)
chain: not shown
notes: UbcH5a (ubiquitin-conjugating enzyme E2), human; cDNA amplified from a human thymus cDNA library; also called GST-Ubc5a; source: E. coli BL21(DE3), purified (Glutathione Sepharose 4B)
B3: His-UbcH5a (wild type) (enzyme)
chain: not shown
notes: UbcH5a (ubiquitin-conjugating enzyme E2), human; cDNA amplified from a human thymus cDNA library; also called His-wtUbcH5a; wtUbcH5a; source: E. coli BL21(DE3), purified (Ni Sepharose 6 Fast Flow)
B4: His-UbcH10 (enzyme, human, UniProt O00762 1-179, looked up)
chain: MASQNRDPAATSVAAARKGAEPSGGAARGPVGKRLQQELMTLMMSGDKGISAFPESDNLFKWVGTIHGAAGTVYEDLRYKLSLEFPSGYPYNAPTVKFLTPCYHPNVDTQGNICLDILKEKWSALYDVRTILLSIQSLLGEPNIDSPLNTHAAELWKNPTAFKKYLQETYSKQVTSQEP
notes: UbcH10 (E2), human; cDNA amplified from a human thymus cDNA library; source: E. coli BL21(DE3), purified (Ni Sepharose 6 Fast Flow)
B5: Ubc13/MMS2 (His-UbcH13 with His-MMS2) (complex)
chain 1: MAGLPRRIIKETQRLLAEPVPGIKAEPDESNARYFHVVIAGPQDSPFEGGTFKLELFLPEEYPMAAPKVRFMTKIYHPNVDKLGRICLDILKDKWSPALQIRTVLLSIQALLSAPNPDDPLANDVAEQWKTNEAQAIETARAWTRLYAMNNI
chain 2: not shown
notes: UbcH13 (Ubc13, E2), human; cDNA amplified from a human thymus cDNA library; MMS2, E2 variant that lacks the active cysteine, human; The two chains were expressed and purified separately; also called UbcH13-MMS2; source: E. coli BL21(DE3), each purified (Ni Sepharose 6 Fast Flow)
B6: GST-TdT (terminal deoxynucleotidyltransferase) (natural protein)
chain: MDPLCTASSGPRKKRPRQVGASMASPPHDIKFQNLVLFILEKKMGTTRRNFLMELARRKGFRVENELSDSVTHIVAENNSGSEVLEWLQVQNIRASSQLELLDVSWLIESMGAGKPVEITGKHQLVVRTDYSATPNPGFQKTPPLAVKKISQYACQRKTTLNNYNHIFTDAFEILAENSEFKENEVSYVTFMRAASVLKSLPFTIISMKDTEGIPCLGDKVKCIIEEIIEDGESSEVKAVLNDERYQSFKLFTSVFGVGLKTSEKWFRMGFRSLSKIMSDKTLKFTKMQKAGFLYYEDLVSCVTRAEAEAVGVLVKEAVWAFLPDAFVTMTGGFRRGKKIGHDVDFLITSPGSAEDEEQLLPKVINLWEKKGLLLYYDLVESTFEKFKLPSRQVDTLDHFQKCFLILKLHHQRVDSSKSNQQEGKTWKAIRVDLVMCPYENRAFALLGWTGSRQFERDIRRYATHERKMMLDNHALYDKTKRVFLKAESEEEIFAHLGLDYIEPWERNA
notes: Terminal deoxynucleotidyltransferase (TdT), bovine; cDNA isolated from a bovine thymus cDNA library; wild type; source: E. coli BL21(DE3)pLysS Rosetta2, purified (Glutathione Sepharose 4B)

Common to all, as to conditions: both partners purified
The assay “GST-TdT (terminal …)” concerns the target B6. In words: pull-down; GST-TdT coupled to Glutathione Sepharose 4B as bait, His-tagged proteins added for 1 h (coupling at 4°C); binding buffer A: 50 mM Tris-HCl pH 7.4, 150 mM NaCl, 2.5 mM MgCl2, 1% TritonX-100, 10% glycerol, 1 mM DTT; immunoblot with anti-His; Figure 2A with or without His-Ub. In general terms: A western blot detects proteins with antibodies after separation by electrophoresis.

The next assay deals with T1, His-TdT del 2 (150–509) (bovine, UniProt P06526 150-509).
T1 construct: also called C-terminal region of TdT; source: E. coli BL21(DE3)pLysS Rosetta2, purified (Ni Sepharose 6 Fast Flow)
Nature of the assay: pull-down; GST-UbcH5a coupled to Glutathione Sepharose 4B as bait, His-TdT deletion mutants as prey; binding buffer A: 50 mM Tris-HCl pH 7.4, 150 mM NaCl, 2.5 mM MgCl2, 1% TritonX-100, 10% glycerol, 1 mM DTT; immunoblot with anti-His.

A further assay addresses T2, His-UbcH5b (human, UniProt P62837 1-147).
T2 construct: UbcH5b (E2), human; cDNA amplified from a human thymus cDNA library; also called UbcH5 isoforms; source: E. coli BL21(DE3), purified (Ni Sepharose 6 Fast Flow)
Nature of the assay: pull-down; GST-TdT coupled to Glutathione Sepharose 4B as bait, His-tagged proteins added for 1 h (coupling at 4°C); binding buffer A: 50 mM Tris-HCl pH 7.4, 150 mM NaCl, 2.5 mM MgCl2, 1% TritonX-100, 10% glycerol, 1 mM DTT; immunoblot with anti-His; Figure 2A with or without His-Ub.

B1: the binding result with GST-TdT (terminal …) is reported as “binds”.
As for B2, in the assay with His-TdT del 2 (150–509), the binding result is recorded as “binds”.
B3: the binding result in the assay with GST-TdT (terminal …) is reported as “binds”.
On the same count and under the same terms, for B4 the value was “binds”.
As for B5, the binding result in the assay with GST-TdT (terminal …) was “binds”.
As to B6, the binding result with His-UbcH5b is given as “binds”.
